This is an account of results in patent publication US20140315817A1 (ALBUMEDIX, published 2014).

In this assay the target is T1, hsa-1: WT - Full Length HSA (human, UniProt P02768 25-609).
T1 construct: Yeast-expressed; also called HSA-wt; wt-HSA; not shown: Factor Xa cleavage site
As to the kind of experiment: method and origin of the value not stated.

B1: recombinant mouse FcRn (R&D Systems, cat#6775-FC-050) (receptor)
chain 1: SETRPPLMYHLTAVSNPSTGLPSFWATGWLGPQQYLTYNSLRQEADPCGAWMWENQVSWYWEKETTDLKSKEQLFLEALKTLEKILNGTYTLQGLLGCELASDNSSVPTAVFALNGEEFMKFNPRIGNWTGEWPETEIVANLWMKQPDAARKESEFLLNSCPERLLGHLERGRRNLEWKEPPSMRLKARPGNSGSSVLTCAAFSFYPPELKFRFLRNGLASGSGNCSTGPNGDGSFHAWSLLEVKRGDEHHYQCQVEHEGLAQPLTVDLDSSARSS
chain 2: IQKTPQIQVYSRHPPENGKPNILNCYVTQFHPPHIEIQMLKNGKKIPKVEMSDMSFSKDWSFYILAHTEFTPTETDTYACRVKHASMAEPKTVYWDRDM
notes: Bought reagent
Consider B1, for which the Kd was ~80 µM.

One may read the Kd as the equilibrium constant for the complex coming apart. Low values mean higher affinity, high ones lower affinity.
